Article PMC11335211, “In vivo photocontrol of orexin receptors with a nanomolar light-regulated analogue of orexin-B” (Cellular and Molecular Life Sciences: CMLS, 2024)

What was measured:
human OX1 = target: T1, human OX1 (Homo sapiens, UniProt O43613); assay: FLIPR Tetra calcium mobilization assay, CHO-K1 cells; assay type: cell-based; conditions: CHO-K1 cells stably expressing hOX1; 0.3 nM to 1 µM; two independent experiments in triplicates
T1 construct: expressed in transfected cells
T1 sequence (O43613 1-425): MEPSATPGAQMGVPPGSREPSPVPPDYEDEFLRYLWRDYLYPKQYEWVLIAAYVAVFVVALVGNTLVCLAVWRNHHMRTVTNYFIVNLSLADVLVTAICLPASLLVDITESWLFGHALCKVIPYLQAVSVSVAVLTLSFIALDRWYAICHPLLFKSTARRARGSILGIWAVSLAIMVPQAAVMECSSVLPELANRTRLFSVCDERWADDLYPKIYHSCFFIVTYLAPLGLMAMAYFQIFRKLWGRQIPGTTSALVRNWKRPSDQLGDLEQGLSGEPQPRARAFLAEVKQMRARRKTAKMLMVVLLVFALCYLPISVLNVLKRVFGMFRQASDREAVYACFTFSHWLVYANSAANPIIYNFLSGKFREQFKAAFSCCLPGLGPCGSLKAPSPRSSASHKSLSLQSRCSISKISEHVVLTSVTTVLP
Description: (§1) Samples of trans phOX were kept in the dark both prior to and during the whole duration of the experiment to avoid undesired photoconversion caused by environmental light. Unless differently stated, data for cis phOX were obtained by pre-illuminating the samples for 10 min with 365 nm UV light.
(§2) PFSK-1 cells were cultured in RPMI 1640 supplemented with 10% fetal bovine serum (FBS), 100 units/ml penicillin, and 100 µg/ml streptomycin. Chinese hamster ovary-K1 (CHO-K1) cells stably transfected to express human OX1 were cultured in Dulbecco’s Modified Eagle’s Medium/Nutrient Mixture F-12 Ham (DMEM/F12 1:1) medium supplemented with 10% FBS and 600 µg/ml G418. All cell lines were grown at 37 °C in 5% CO2.
(§3) Cells were plated at 50,000 cells/well in 96-well black-wall plates with poly-D-lysine-coated clear bottoms and grown overnight at 37 °C in 5% CO2. […] Calcium-mediated changes in fluorescence were monitored in a Fluorometric Imaging Plate Reader (FLIPR) Tetra instrument (Molecular Devices, USA). Fluorescence intensity was measured for 12 s to establish baseline fluorescence before addition of the test compound (20 µL/well) and further readings for a total of 155 s (excitation at 470–495 nm, detection at 515–575 nm). […]
(§4) Raw data from the FLIPR Tetra was exported as the difference between maximum and minimum fluorescence observed for each well. […] Agonist potencies (EC50) are expressed as means + SD.

hOX2 [1] = target: T2, hOX2 (Homo sapiens, UniProt O43614); assay: FLIPR Tetra calcium mobilization assay, PFSK-1 cells; assay type: cell-based; conditions: PFSK-1 cells innately expressing hOX2; 0.3 nM to 1 µM; two independent experiments in triplicates
T2 sequence (O43614 1-444): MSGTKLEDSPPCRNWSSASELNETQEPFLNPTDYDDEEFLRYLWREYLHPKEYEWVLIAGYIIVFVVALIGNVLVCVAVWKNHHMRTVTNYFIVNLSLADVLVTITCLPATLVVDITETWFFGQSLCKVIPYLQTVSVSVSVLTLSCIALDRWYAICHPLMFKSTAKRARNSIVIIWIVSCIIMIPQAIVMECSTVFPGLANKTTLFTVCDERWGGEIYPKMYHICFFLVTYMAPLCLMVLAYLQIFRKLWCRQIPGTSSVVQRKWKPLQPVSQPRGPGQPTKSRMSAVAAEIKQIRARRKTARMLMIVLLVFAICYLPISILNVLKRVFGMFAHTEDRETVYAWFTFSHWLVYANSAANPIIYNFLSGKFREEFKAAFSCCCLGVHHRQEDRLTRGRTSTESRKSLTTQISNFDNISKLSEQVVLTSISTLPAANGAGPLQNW
Description: as §1, §2, §3, §4

OX2 = conditions: in words; cited from earlier work
Text: Among these, a family of neuroexcitatory peptides known as orexins (or hypocretins) is critically involved in regulating sleep and wakefulness, energy homeostasis, and reward. Orexin signaling is mediated by two closely related G protein-coupled receptors (GPCRs) – OX1 and OX2 (orexin) receptors – which are strongly conserved among mammals. While orexin cell bodies are concentrated in the hypothalamic area, orexin receptors are widely expressed in the central nervous system (CNS). Their endogenous ligands are two peptides, named ...

OX1 receptor = conditions: membrane-based binding assay; ref Langmead et al., 5 (SI); cited from earlier work
Text: Although the lack of binding with all three forms of OX-B - including the native ligand control - came unexpected, similar findings had already been observed for the OX1 receptor.

[2] = parameters: method as in 2 sources, one per row (each row's own in cited_ref): ref 75–77 = [75]; PMID 10087007; 75. Kastin AJ Akerstrom V Orexin A but not orexin B rapidly enters brain from blood by simple diffusion J Pharmacol Exp Ther 1999 289 219 223 10087007 || [76]; PMID 12626669; doi:10.1113/jphysiol.2002.038729; 76. John J Wu M-F Kodama T Siegel JM Intravenously administered hypocretin-1 alters brain amino acid release: an in vivo microdialysis study in rats J Physiol 2003 548 557 562 10.1113/jphysiol.2002.03 || [77]; PMID 14746374; doi:10.1093/sleep/26.8.953; 77. Fujiki N Yoshida Y Ripley B Mignot E Nishino S Effects of IV and ICV hypocretin-1 (orexin A) in hypocretin receptor-2 gene mutated narcoleptic dogs and IV hypocretin-1 replacement therapy in a hyp ||| ref 75 = [75]; PMID 10087007; 75. Kastin AJ Akerstrom V Orexin A but not orexin B rapidly enters brain from blood by simple diffusion J Pharmacol Exp Ther 1999 289 219 223 10087007; conditions: cited from earlier work
[3] = parameters: method as in PMID 10087007; conditions: cited from earlier work
hOX2 [4] = target: T2, hOX2; assay: Radioligand competitive binding assay ([3H]EMPA); parameters: expressed in transfected cells; membranes; conditions: control ligands; HEK-293-hOX2 membranes, [3H]EMPA 2 nM, 60 min rt, 10^-9 to 10^-6 M; two independent experiments in triplicates
Text: The affinity towards OX2 was studied in a competitive radioligand binding assay on membranes derived from HEK-293 cells stably transfected with the human receptor. [^3H]EMPA, an OX2-selective orthosteric antagonist, was used as radioactive tracer to quantify residual binding after competitive displacement in the presence of the unlabeled ligands.^3 Wild-type OX-B and almorexant, a non-selective OX1 and OX2 antagonist, served as controls.^4
[^3H]EMPA (specific activity 27 Ci/mmol) and almorexant were synthesized at Janssen Research & Development LLC (San Diego, CA), while orexin-B was obtained from Bachem (Torrance, CA).
Cell membranes were prepared from a stable pool of HEK-293 cells transfected with the human OX2. Test compounds were dissolved in DMSO (10 mM stock solutions) and diluted in Dulbecco’s phosphate-buffered saline supplemented with 0.1% bovine serum albumin (BSA). Competition studies were performed by incubating the membranes with the OX2-selective antagonist [^3H]EMPA (2 nM) and different concentrations of the test compounds (7 concentrations ranging from 10^−9 to 10^−6 M). After a 60-minute incubation at rt, binding reactions were filtered to separate the excess of free ligand from the membranes. Filters were then counted for radioactivity in a scintillation counter. Nonspecific binding was determined in the presence of 10 µM almorexant.
Specific binding was determined and plotted as a function of the concentration of the compound using GraphPad Prism v8.3.1 (GraphPad Software, San Diego, USA). Data were analyzed by nonlinear regression using a one-site competition model.

OX-B: endogenous orexin peptide, native ligand control, obtained from Bachem
increase in calcium release (agonist activity) (human OX1): increased calcium release in a concentration-dependent manner | increase in calcium release (agonist activity) (hOX2 [1]): increased calcium release in a concentration-dependent manner | receptor selectivity (OX2): selective for OX2 | occupation of OX1 orthosteric site versus [3H]SB-674042 (OX1 receptor): failed to occupy the receptor orthosteric site | metabolism [2]: readily metabolized | lipophilicity relative to OX-A [3]: not as lipophilic | inhibition of [3H]EMPA binding (hOX2 [4]): did not compete to bind to the receptor
